The supplement of paper PMC5998384

Columns and labels:
[1] = test system: HeLa Kyoto; test: solubility in G1/S (NP-40 vs SDS abundance) (log2 ratio); higher = more soluble; details: cell cycle stage: G1/S
[2] = test system: HeLa Kyoto; test: solubility change mitosis vs G1/S (difference of NP-40 vs SDS log2 ratios) (log2 ratio difference); higher = more soluble in mitosis
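Throughout, for solubility change mitosis vs G1/S (difference of NP-40 vs SDS log2 ratios): synchronized HeLa Kyoto cells (double thymidine block for G1/S, nocodazole release for mitosis), protein amounts in NP-40 versus SDS lysates quantified by mass spectrometry, three biological replicates.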
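Throughout, for solubility in G1/S (NP-40 vs SDS abundance): HeLa Kyoto cells arrested at G1/S by double thymidine block, proteins quantified by TMT10plex mass spectrometry in mild NP-40 versus SDS extracts, three biological replicates.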

| Sequence | solubility in G1/S (log2) [1] | solubility change mitosis (log2) [2] |
| --- | --- | --- |
| MASPEPRRGGDGAAQAARKTRVEANSPLPKNSGSLNEAEALNPEVTLSSEGSLNLEDILYLEDTGDLDETLYVQETEKAEEALYIEEAMQPDEALHVEEPGNPEETVCVEETTEPDRIQFVEGPVEPGKPTSPEHVVYEGETVTRAEKSNPEESLRAEQSPSMEENLSIEDLELLEGRFQQCVQAVAQLEEERDQLIHELVLLREPALQEVQQVHQDILAAYKLHAQAELERDGLREEIRLVKQKLFKVTKECVAYQYQLECRQQDVAQFADFREVLTTRATQLSEELAQLRDAYQKQKEQLRQQLEAPPSQRDGHFLQESRRLSAQFENLMAESRQDLEEEYEPQFLRLLERKEAGTKALQRTQAEIQEMKEALRPLQAEARQLRLQNRNLEDQIALVRQKRDEEVQQYREQLEEMEERQRQLRNGVQLQQQKNKEMEQLRLSLAEELSTYKAMLLPKSLEQADAPTSQAGGMETQSQGAV [SYNC] | 0.502 | 0.0968 |
| MASRWQNMGTSVRRRSLQHQEQLEDSKELQPVVSHQETSVGALGSLCRQFQRRLPLRAVNLNLRAGPSWKRLETPEPGQQGLQAAARSAKSALGAVSQRIQESCQSGTKWLVETQVKARRRKRGAQKGSGSPTHSLSQKSTRLSGAAPAHSAADPWEKEHHRLSVRMGSHAHPLRRSRREAAFRSPYSSTEPLCSPSESDSDLEPVGAGIQHLQKLSQELDEAIMAEERKQALSDRQGFILKDVYASP [FAM64A] | 0.000622 | 0.481 |
| MASSDLEQLCSHVNEKIGNIKKTLSLRNCGQEPTLKTVLNKIGDEIIVINELLNKLELEIQYQEQTNNSLKELCESLEEDYKDIEHLKENVPSHLPQVTVTQSCVKGSDLDPEEPIKVEEPEPVKKPPKEQRSIKEMPFITCDEFNGVPSYMKSRLTYNQINDVIKEINKAVISKYKILHQPKKSMNSVTRNLYHRFIDEETKDTKGRYFIVEADIKEFTTLKADKKFHVLLNILRHCRRLSEVRGGGLTRYVIT [SKA1] | 0.713 | -0.0548 |
| MASSEVARHLLFQSHMATKTTCMSSQGSDDEQIKRENIRSLTMSGHVGFESLPDQLVNRSIQQGFCFNILCVGETGIGKSTLIDTLFNTNFEDYESSHFCPNVKLKAQTYELQESNVQLKLTIVNTVGFGDQINKEESYQPIVDYIDAQFEAYLQEELKIKRSLFTYHDSRIHVCLYFISPTGHSLKTLDLLTMKNLDSKVNIIPVIAKADTVSKTELQKFKIKLMSELVSNGVQIYQFPTDDDTIAKVNAAMNGQLPFAVVGSMDEVKVGNKMVKARQYPWGVVQVENENHCDFVKLREMLICTNMEDLREQTHTRHYELYRRCKLEEMGFTDVGPENKPVSVQETYEAKRHEFHGERQRKEEEMKQMFVQRVKEKEAILKEAERELQAKFEHLKRLHQEERMKLEEKRRLLEEEIIAFSKKKATSEIFHSQSFLATGSNLRKDKDRKNSNFL [SEPT10] | -0.132 | -0.0981 |
| MASSSGSSPRPAPDENEFPFGCPPTVCQDPKEPRALCCAGCLSENPRNGEDQICPKCRGEDLQSISPGSRLRTQEKAHPEVAEAGIGCPFAGVGCSFKGSPQSVQEHEVTSQTSHLNLLLGFMKQWKARLGCGLESGPMALEQNLSDLQLQAAVEVAGDLEVDCYRAPCSESQEELALQHFMKEKLLAELEGKLRVFENIVAVLNKEVEASHLALATSIHQSQLDRERILSLEQRVVELQQTLAQKDQALGKLEQSLRLMEEASFDGTFLWKITNVTRRCHESACGRTVSLFSPAFYTAKYGYKLCLRLYLNGDGTGKRTHLSLFIVIMRGEYDALLPWPFRNKVTFMLLDQNNREHAIDAFRPDLSSASFQRPQSETNVASGCPLFFPLSKLQSPKHAYVKDDTMFLKCIVETST [TRAF1] | 0.254 | -0.305 |
| MATFVSELEAAKKNLSEALGDNVKQYWANLKLWFKQKISKEEFDLEAHRLLTQDNVHSHNDFLLAILTRCQILVSTPDGAGSLPWPGGSAAKPGKPKGKKKLSSVRQKFDHRFQPQNPLSGAQQFVAKDPQDDDDLKLCSHTMMLPTRGQLEGRMIVTAYEHGLDNVTEEAVSAVVYAVENHLKDILTSVVSRRKAYRLRDGHFKYAFGSNVTPQPYLKNSVVAYNNLIESPPAFTAPCAGQNPASHPPPDDAEQQAALLLACSGDTLPASLPPVNMYDLFEALQVHREVIPTHTVYALNIERIITKLWHPNHEELQQDKVHRQRLAAKEGLLLC [TADA1] | 0.289 | -0.0314 |
| MATPGPVIPEVPFEPSKPPVIEGLSPTVYRNPESFKEKFVRKTRENPVVPIGCLATAAALTYGLYSFHRGNSQRSQLMMRTRIAAQGFTVAAILLGLAVTAMKSRP [HIGD2A] | -0.399 | 0.482 |
